Experimental data as given in patent publication US20260209293A1 (Novo Nordisk, published 2026).
*1 amine or outer side, *2 acyl side, *3 side chain or, on linkers, in order; H or OH if unused. The star is where a group is joined. C18 diacid = O=C(O)CCCCCCCCCCCCCCCCC(=O)*; γGlu = O=C(O)[C@H](CCC(=O)[*:2])N[*:1]

Experiments:
[1] = target: T1, human amylin-3(a) receptor (human, UniProt P30988 25-474; O60896 24-148); assay: cell-based or functional assay
T1 sequence (looked up) 1: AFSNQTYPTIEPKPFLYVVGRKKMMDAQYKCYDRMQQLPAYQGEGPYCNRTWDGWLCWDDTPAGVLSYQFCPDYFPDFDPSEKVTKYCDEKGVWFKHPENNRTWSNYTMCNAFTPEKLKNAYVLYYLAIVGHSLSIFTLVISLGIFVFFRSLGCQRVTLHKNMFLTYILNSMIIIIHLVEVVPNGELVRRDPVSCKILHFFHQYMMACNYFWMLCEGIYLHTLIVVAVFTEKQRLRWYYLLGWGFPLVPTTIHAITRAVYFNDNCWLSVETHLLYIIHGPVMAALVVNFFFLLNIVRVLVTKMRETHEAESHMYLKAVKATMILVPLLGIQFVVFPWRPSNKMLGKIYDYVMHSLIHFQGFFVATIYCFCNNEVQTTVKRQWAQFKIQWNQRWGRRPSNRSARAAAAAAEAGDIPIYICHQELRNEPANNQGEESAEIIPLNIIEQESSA
T1 sequence (looked up) 2: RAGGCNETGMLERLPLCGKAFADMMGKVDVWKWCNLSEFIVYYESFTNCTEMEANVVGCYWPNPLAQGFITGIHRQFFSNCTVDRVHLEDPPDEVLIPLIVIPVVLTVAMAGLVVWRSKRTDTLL

[2] = target: T2, human calcitonin receptor (a) (human, UniProt P30988 25-474); assay: cell-based or functional assay
T2 sequence (looked up): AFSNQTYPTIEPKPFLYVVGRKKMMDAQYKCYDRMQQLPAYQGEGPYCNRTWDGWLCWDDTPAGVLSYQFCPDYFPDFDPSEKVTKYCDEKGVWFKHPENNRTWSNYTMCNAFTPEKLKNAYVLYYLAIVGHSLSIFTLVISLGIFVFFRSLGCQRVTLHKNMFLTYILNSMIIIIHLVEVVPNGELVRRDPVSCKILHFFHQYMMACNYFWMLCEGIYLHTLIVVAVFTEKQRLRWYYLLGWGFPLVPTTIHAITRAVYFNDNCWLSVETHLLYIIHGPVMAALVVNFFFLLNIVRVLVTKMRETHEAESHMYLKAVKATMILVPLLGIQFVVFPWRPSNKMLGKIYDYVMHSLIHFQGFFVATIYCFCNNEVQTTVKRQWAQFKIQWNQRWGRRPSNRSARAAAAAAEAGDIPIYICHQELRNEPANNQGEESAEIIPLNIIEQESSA

Binder | hAmyR3 potency, EC50 (pM); CRE-luciferase reporter in BHK cells [1] [pM] | hCalcR potency, EC50 (pM); CRE-luciferase reporter in BHK cells [2] [pM]
{C18 diacid-γGlu}-ASHLSTAQTQRLAEFLHHFGPILPPTDVGSETP-NH2 (SMILES CC[C@H](C)[C@H](NC(=O)[C@@H]1CCCN1C(=O)CNC(=O)[C@H](Cc1ccccc1)NC(=O)[C@H](Cc1c[nH]cn1)NC(=O)[C@H](Cc1c[nH]cn1)NC(=O)[C@H](CC(C)C)NC(=O)[C@H](Cc1ccccc1)NC(=O)[C@H](CCC(=O)O)NC(=O)[C@H](C)NC(=O)[C@H](CC(C)C)NC(=O)[C@H](CCCNC(=N)N)NC(=O)[C@H](CCC(N)=O)NC(=O)[C@@H](NC(=O)[C@H](CCC(N)=O)NC(=O)[C@H](C)NC(=O)[C@@H](NC(=O)[C@H](CO)NC(=O)[C@H](CC(C)C)NC(=O)[C@H](Cc1c[nH]cn1)NC(=O)[C@H](CO)NC(=O)[C@H](C)NC(=O)CC[C@H](NC(=O)CCCCCCCCCCCCCCCCC(=O)O)C(=O)O)[C@@H](C)O)[C@@H](C)O)C(=O)N[C@@H](CC(C)C)C(=O)N1CCC[C@H]1C(=O)N1CCC[C@H]1C(=O)N[C@H](C(=O)N[C@@H](CC(=O)O)C(=O)N[C@H](C(=O)NCC(=O)N[C@@H](CO)C(=O)N[C@@H](CCC(=O)O)C(=O)N[C@H](C(=O)N1CCC[C@H]1C(N)=O)[C@@H](C)O)C(C)C)[C@@H](C)O) | 2.06 | 1.72
{C18 diacid-γGlu-γGlu}-ASHLSTAQTQRLAEFLHHFGPILPPTDVGSETP-NH2 (SMILES CC[C@H](C)[C@H](NC(=O)[C@@H]1CCCN1C(=O)CNC(=O)[C@H](Cc1ccccc1)NC(=O)[C@H](Cc1c[nH]cn1)NC(=O)[C@H](Cc1c[nH]cn1)NC(=O)[C@H](CC(C)C)NC(=O)[C@H](Cc1ccccc1)NC(=O)[C@H](CCC(=O)O)NC(=O)[C@H](C)NC(=O)[C@H](CC(C)C)NC(=O)[C@H](CCCNC(=N)N)NC(=O)[C@H](CCC(N)=O)NC(=O)[C@@H](NC(=O)[C@H](CCC(N)=O)NC(=O)[C@H](C)NC(=O)[C@@H](NC(=O)[C@H](CO)NC(=O)[C@H](CC(C)C)NC(=O)[C@H](Cc1c[nH]cn1)NC(=O)[C@H](CO)NC(=O)[C@H](C)NC(=O)CC[C@H](NC(=O)CC[C@H](NC(=O)CCCCCCCCCCCCCCCCC(=O)O)C(=O)O)C(=O)O)[C@@H](C)O)[C@@H](C)O)C(=O)N[C@@H](CC(C)C)C(=O)N1CCC[C@H]1C(=O)N1CCC[C@H]1C(=O)N[C@H](C(=O)N[C@@H](CC(=O)O)C(=O)N[C@H](C(=O)NCC(=O)N[C@@H](CO)C(=O)N[C@@H](CCC(=O)O)C(=O)N[C@H](C(=O)N1CCC[C@H]1C(N)=O)[C@@H](C)O)C(C)C)[C@@H](C)O) | 2.03 | 2.13
{C18 diacid-γGlu}-ASHLSTAQTQRLAEFLHHSSEPFGAIPSSTEVGPETP-NH2 (SMILES CC[C@H](C)[C@H](NC(=O)[C@H](C)NC(=O)CNC(=O)[C@H](Cc1ccccc1)NC(=O)[C@@H]1CCCN1C(=O)[C@H](CCC(=O)O)NC(=O)[C@H](CO)NC(=O)[C@H](CO)NC(=O)[C@H](Cc1c[nH]cn1)NC(=O)[C@H](Cc1c[nH]cn1)NC(=O)[C@H](CC(C)C)NC(=O)[C@H](Cc1ccccc1)NC(=O)[C@H](CCC(=O)O)NC(=O)[C@H](C)NC(=O)[C@H](CC(C)C)NC(=O)[C@H](CCCNC(=N)N)NC(=O)[C@H](CCC(N)=O)NC(=O)[C@@H](NC(=O)[C@H](CCC(N)=O)NC(=O)[C@H](C)NC(=O)[C@@H](NC(=O)[C@H](CO)NC(=O)[C@H](CC(C)C)NC(=O)[C@H](Cc1c[nH]cn1)NC(=O)[C@H](CO)NC(=O)[C@H](C)NC(=O)CC[C@H](NC(=O)CCCCCCCCCCCCCCCCC(=O)O)C(=O)O)[C@@H](C)O)[C@@H](C)O)C(=O)N1CCC[C@H]1C(=O)N[C@@H](CO)C(=O)N[C@@H](CO)C(=O)N[C@H](C(=O)N[C@@H](CCC(=O)O)C(=O)N[C@H](C(=O)NCC(=O)N1CCC[C@H]1C(=O)N[C@@H](CCC(=O)O)C(=O)N[C@H](C(=O)N1CCC[C@H]1C(N)=O)[C@@H](C)O)C(C)C)[C@@H](C)O) | 2.68 | 1.78
{C18 diacid-γGlu-γGlu}-AGSLSTAQTQRLAEFLHHFGPILPPTDVGSETP-NH2 (SMILES CC[C@H](C)[C@H](NC(=O)[C@@H]1CCCN1C(=O)CNC(=O)[C@H](Cc1ccccc1)NC(=O)[C@H](Cc1c[nH]cn1)NC(=O)[C@H](Cc1c[nH]cn1)NC(=O)[C@H](CC(C)C)NC(=O)[C@H](Cc1ccccc1)NC(=O)[C@H](CCC(=O)O)NC(=O)[C@H](C)NC(=O)[C@H](CC(C)C)NC(=O)[C@H](CCCNC(=N)N)NC(=O)[C@H](CCC(N)=O)NC(=O)[C@@H](NC(=O)[C@H](CCC(N)=O)NC(=O)[C@H](C)NC(=O)[C@@H](NC(=O)[C@H](CO)NC(=O)[C@H](CC(C)C)NC(=O)[C@H](CO)NC(=O)CNC(=O)[C@H](C)NC(=O)CC[C@H](NC(=O)CC[C@H](NC(=O)CCCCCCCCCCCCCCCCC(=O)O)C(=O)O)C(=O)O)[C@@H](C)O)[C@@H](C)O)C(=O)N[C@@H](CC(C)C)C(=O)N1CCC[C@H]1C(=O)N1CCC[C@H]1C(=O)N[C@H](C(=O)N[C@@H](CC(=O)O)C(=O)N[C@H](C(=O)NCC(=O)N[C@@H](CO)C(=O)N[C@@H](CCC(=O)O)C(=O)N[C@H](C(=O)N1CCC[C@H]1C(N)=O)[C@@H](C)O)C(C)C)[C@@H](C)O) | 2.37 | 2.07
{C18 diacid-γGlu}-ASELSTAQTQRLAEFLHHFGPILPPTDVGSETP-NH2 (SMILES CC[C@H](C)[C@H](NC(=O)[C@@H]1CCCN1C(=O)CNC(=O)[C@H](Cc1ccccc1)NC(=O)[C@H](Cc1c[nH]cn1)NC(=O)[C@H](Cc1c[nH]cn1)NC(=O)[C@H](CC(C)C)NC(=O)[C@H](Cc1ccccc1)NC(=O)[C@H](CCC(=O)O)NC(=O)[C@H](C)NC(=O)[C@H](CC(C)C)NC(=O)[C@H](CCCNC(=N)N)NC(=O)[C@H](CCC(N)=O)NC(=O)[C@@H](NC(=O)[C@H](CCC(N)=O)NC(=O)[C@H](C)NC(=O)[C@@H](NC(=O)[C@H](CO)NC(=O)[C@H](CC(C)C)NC(=O)[C@H](CCC(=O)O)NC(=O)[C@H](CO)NC(=O)[C@H](C)NC(=O)CC[C@H](NC(=O)CCCCCCCCCCCCCCCCC(=O)O)C(=O)O)[C@@H](C)O)[C@@H](C)O)C(=O)N[C@@H](CC(C)C)C(=O)N1CCC[C@H]1C(=O)N1CCC[C@H]1C(=O)N[C@H](C(=O)N[C@@H](CC(=O)O)C(=O)N[C@H](C(=O)NCC(=O)N[C@@H](CO)C(=O)N[C@@H](CCC(=O)O)C(=O)N[C@H](C(=O)N1CCC[C@H]1C(N)=O)[C@@H](C)O)C(C)C)[C@@H](C)O) | 5.2 | 3.08
